Experimental data as given in PMC8586334, “Distinct RPA domains promote recruitment and the helicase-nuclease activities of Dna2” (Nature Communications, 2021).

Biological target: Rfa1-AB-Y193D (S. cerevisiae)
Assay: cell-based or functional assay

B1: S. cerevisiae Dna2-E675A (nuclease-dead) (enzyme, UniProt P38859 1-1522, looked up)
chain: MPGTPQKNKRSASISVSPAKKTEEKEIIQNDSKAILSKQTKRKKKYAFAPINNLNGKNTKVSNASVLKSIAVSQVRNTSRTKDINKAVSKSVKQLPNSQVKPKREMSNLSRHHDFTQDEDGPMEEVIWKYSPLQRDMSDKTTSAAEYSDDYEDVQNPSSTPIVPNRLKTVLSFTNIQVPNADVNQLIQENGNEQVRPKPAEISTRESLRNIDDILDDIEGDLTIKPTITKFSDLPSSPIKAPNVEKKAEVNAEEVDKMDSTGDSNDGDDSLIDILTQKYVEKRKSESQITIQGNTNQKSGAQESCGKNDNTKSRGEIEDHENVDNQAKTGNAFYENEEDSNCQRIKKNEKIEYNSSDEFSDDSLIELLNETQTQVEPNTIEQDLDKVEKMVSDDLRIATDSTLSAYALRAKSGAPRDGVVRLVIVSLRSVELPKIGTQKILECIDGKGEQSSVVVRHPWVYLEFEVGDVIHIIEGKNIENKRLLSDDKNPKTQLANDNLLVLNPDVLFSATSVGSSVGCLRRSILQMQFQDPRGEPSLVMTLGNIVHELLQDSIKYKLSHNKISMEIIIQKLDSLLETYSFSIIICNEEIQYVKELVMKEHAENILYFVNKFVSKSNYGCYTSISGTRRTQPISISNVIDIEENIWSPIYGLKGFLDATVEANVENNKKHIVPLAVKTGKSRSVSYEVQGLIYTLLLNDRYEIPIEFFLLYFTRDKNMTKFPSVLHSIKHILMSRNRMSMNFKHQLQEVFGQAQSRFELPPLLRDSSCDSCFIKESCMVLNKLLEDGTPEESGLVEGEFEILTNHLSQNLANYKEFFTKYNDLITKEESSITCVNKELFLLDGSTRESRSGRCLSGLVVSEVVEHEKTEGAYIYCFSRRRNDNNSQSMLSSQIAANDFVIISDEEGHFCLCQGRVQFINPAKIGISVKRKLLNNRLLDKEKGVTTIQSVVESELEQSSLIATQNLVTYRIDKNDIQQSLSLARFNLLSLFLPAVSPGVDIVDERSKLCRKTKRSDGGNEILRSLLVDNRAPKFRDANDDPVIPYKLSKDTTLNLNQKEAIDKVMRAEDYALILGMPGTGKTTVIAEIIKILVSEGKRVLLTSYTHSAVDNILIKLRNTNISIMRLGMKHKVHPDTQKYVPNYASVKSYNDYLSKINSTSVVATTCLGINDILFTLNEKDFDYVILDEASQISMPVALGPLRYGNRFIMVGDHYQLPPLVKNDAARLGGLEESLFKTFCEKHPESVAELTLQYRMCGDIVTLSNFLIYDNKLKCGNNEVFAQSLELPMPEALSRYRNESANSKQWLEDILEPTRKVVFLNYDNCPDIIEQSEKDNITNHGEAELTLQCVEGMLLSGVPCEDIGVMTLYRAQLRLLKKIFNKNVYDGLEILTADQFQGRDKKCIIISMVRRNSQLNGGALLKELRRVNVAMTRAKSKLIIIGSKSTIGSVPEIKSFVNLLEERNWVYTMCKDALYKYKFPDRSNAIDEARKGCGKRTGAKPITSKSKFVSDKPIIKEILQEYES
unwinding of 2.2-kbp-long dsDNA by Dna2-E675A, stimulation by the Rfa1-AB variant, against wild type Rfa1-AB: ~2.5 fold less efficient
